Results on three molecules are retold here after US10556936B2, “Immunogenic proteins and fragments thereof from allergenic mites” (ALK-ABELLÓ A/S, priority 2016, dated 2020).

Format in all cases: cell-based, human
The subject of data set [1] is basophils in whole blood from HDM allergic donors. The data set is described as follows: Basophil Activation Test (BAT). To be noted: blood from HDM allergic individuals (n=14). As to the method: Basophil Activation Test (BAT) was used as a predictive in vitro assay for indication of safety/immediate hypersensitivity reactions. The BAT assay is a widely used diagnostic test that is also used for evaluation of allergenicity of allergen derived components. In short: whole blood from HDM allergic donors was stimulated for 1 h with the proteins, and the increased expression of activation markers on the surface of basophils were measured by flow cytometry. The BAT test was carried out using different concentrations of the proteins and the allergens Der p 2 and Der p 1 was used as controls and tested in the same concentration rates.
(§1) This example relates to the further testing of immunogenicity of the proteins identified in Example 1. Their ability to react with IgE antibodies in HDM allergic individuals, to stimulate in vitro T cell proliferation of HDM allergic individuals and non-allergics, and to stimulate ex vivo cytokine production of HDM allergic individuals and non-allergics. The following tests were used: • Basophil Activation Test (BAT) was used as a predictive in vitro assay for indication of safety/immediate hypersensitivity reactions. BAT test was carried out using blood from HDM allergic individuals (n=14), and by use of different concentrations of test proteins or the major house dust mite allergens (Der p 1, Der f 1, Der p 2 or Der f 2, e.g. a concentration of 1, 10, 100 or 1000 ng/ml. • In vitro T cell reactivity determined in T cell lines obtained from HDM allergic individuals (n=30) and non-allergics (n=8): Determined by establishment of HDM specific T-cell lines according to standard methods. In short, PMBCs from HDM allergic donors were cultured for 3 weeks in the presence of house dust mite allergen extract. The responses to proteins at a concentration of 0.5 ug/ml or 2 ug/ml of the test protein or the major house dust mite allergens (Der p 1, Der f 1, Der p 2 or Der f 2) were assessed by proliferation in a standard 72 h T cell proliferation assay, as described in Henmar H et al., Clin Exp Immunol 2008; 153(3):316-23. […]. • Ex vivo stimulation of PBMC cells obtained from mite allergic patients (n=16) and non-allergics (n=6): Determined by measuring the production of the cytokines; IFN-gamma, IL-9, IL-10, IL-17 and IL-31 following stimulation with test protein in concentration up to 10 ug/ml. Freshly isolated PBMC 5×10^6/ml were cultured with a test protein for 5 days and cell supernatant were harvested and stored at −80° C. Cytokines of the supernatants were measured using ProcartaPlex Multiplex Immunoassays with MAGPIX Multiplex Reader according manufactory protocol.

Data set [2] deals with PBMC cells obtained from mite allergic patients and non-allergics. In words: Ex vivo stimulation of PBMC: cytokine production (IFN-gamma, IL-9, IL-10, IL-17, IL-31).
Source text: as §1

Data set [3] relates to T cell lines obtained from HDM allergic individuals and non-allergics. In words: In vitro T cell proliferation test in T cell lines (Example 3). To be noted: 0.5 or 2 ug/ml, 72 h; for % responders of in-vitro T cell proliferation test, Allergic: T cell lines from HDM allergic individuals (n=30); for % responders of in-vitro T cell proliferation test, Non-allergics: T cell lines from non-allergics (n=8).
Source text: as §1

B1: A012: house dust mite protein; SEQ ID NO: 22 (Der p), 38 (Der f), 310 (Blo t) (protein)
chain: QSRDRNDKPYRIVCYWGTWAFYRPASGKFQAENVNPNLCTHIMYGFAKLQNNKIALYDPDLDDGDEDWNSGLQWGHGMIRRMVNLRTYNPHLTTMISLGGWNEGSDKYSIMVRDPASRKIFIQSVLHLLAEFDLDGLDFDWEYPAMQASGDSDRKPGRAEDKEDFVTLLRELHEAFQPHGYVLSSAVSAGKPTIDRAYNIPEVSKYLDFINLMSYDYHGGWESHTGHNAPLNSYKNANELDKEFTVTYSVEYWLNHGVDPKKLVLGIPLYGRTFTLAGSEHGIGAPTIGKGGESGTITRTIGMLGYNEICTMIKQGWQLYRDEIERIPYAVHANQWIGYDDRESVNEKLNLLMAKHLGGAMVWSIDTDDFVGNCVGVKYPLLRSISKKLNNVDGPDPDIKRYHYHTSTAKPHTDGTTSTHHDHKTTTTKHHKTTQPHHKTTQPHHTQTITTTTERPHGKFQCHQAGFFADPENPRKFHQCVDFGGHLKDYEFMCGEGTHYDEKLHICVR
As to B1, in data set [1] (1 ng/ml), the “# of individuals of 14 with positive BAT test” value is reported as 0. Moreover, the “# of individuals of 14 with positive BAT test” value in data set [1] (10 ng/ml) worked out at 0. Further, the “# of individuals of 14 with positive BAT test” value in data set [1] (100 ng/ml) is 0. In addition, the “# of individuals of 14 with positive BAT test” value in data set [1] (1000 ng/ml) was determined as 0. In data set [2], the “% HDM allergic individuals with cytokine production in ex-vivo T cell assay IL-5” value is given as 69%, the “% HDM allergic individuals with cytokine production in ex-vivo T cell assay IL-9” value is 25%, the “% HDM allergic individuals with cytokine production in ex-vivo T cell assay IL-10” value came out at 19% and the “% HDM allergic individuals with cytokine production in ex-vivo T cell assay IL-13” value is recorded as 44%. In data set [2], the “% HDM allergic individuals with cytokine production in ex-vivo T cell assay IL-17” value was found to be 19%, the “% HDM allergic individuals with cytokine production in ex-vivo T cell assay IL-31” value stood at 0%, the “% HDM allergic individuals with cytokine production in ex-vivo T cell assay INF-g” value is 0% and the “% non-allergic individuals with cytokine production in ex-vivo T cell assay IL-5” value worked out at 0%. Moreover, in data set [2], the “% non-allergic individuals with cytokine production in ex-vivo T cell assay IL-9” value is given as 0%, the “% non-allergic individuals with cytokine production in ex-vivo T cell assay IL-10” value is 67%, the “% non-allergic individuals with cytokine production in ex-vivo T cell assay IL-13” value is reported as 0% and the “% non-allergic individuals with cytokine production in ex-vivo T cell assay IL-17” value came to 33%. Also, in data set [2], the “% non-allergic individuals with cytokine production in ex-vivo T cell assay IL-31” value was 0% and the “% non-allergic individuals with cytokine production in ex-vivo T cell assay INF-g” value was found to be 17%. In addition, in data set [3], the “% responders of in-vitro T cell proliferation test, Allergic” value amounted to 39% and the “% responders of in-vitro T cell proliferation test, Non-allergics” value (“% responders … Non-allergics” for short) came to 13%.

B2: A013: house dust mite protein; SEQ ID NO: 36 (Der f), 37 (Der p), 311 (Blo t) (protein)
chain: DTPANCTYEDIKGLWLFEETEPIKDRWEKCPEHQQQREKYSKKIFIRLDFPNVAVDKFGNIGEWTMIYNQGFEVKINYRKYFAFSAYERKSENNVLSYCHKTQPGWSHDVLGNNWACYVGHKVNNWNDDDVSKTTTVGAEKFPVKQHSERELYLQNINVEHILSQKHIDHLNSQQKSWKAIVYPDLQSKSIEHLIQMAGGRKSRIINRPKPLRATEQQKQLARSLPESFDWRNLNGIDYVSPVRDQGKCGSCYTFASMAMLESRIRIQTNNTFKPIFSTQEVVDCSEYSQGCDGGFSYLIAGKYAQDFGVIDESCYPYKGVTGKCQNQQNFNQTNEKCKQRTYTIDYKYVGGYFGACNEEAMQIELVQNGPIAVGFEVYGDFFGYSEGIYSHQPSNESNDQHQQIKAEFNPFEMTNHAVLIVGYGKDKKTGEKYWIVKNSWGKQWGMDGYFWMRRGTDECAIESLAMAATPIPN
For the molecule B2, the “# of individuals of 14 with positive BAT test” value in data set [1] (1 ng/ml) came out at 0. In data set [1] (10 ng/ml), the “# of individuals of 14 with positive BAT test” value amounted to 0. Besides, in data set [1] (100 ng/ml), the “# of individuals of 14 with positive BAT test” value was 0. For the same molecule, the “# of individuals of 14 with positive BAT test” value in data set [1] (1000 ng/ml) is recorded as 0. Besides, in data set [2], the “% HDM allergic individuals with cytokine production in ex-vivo T cell assay IL-5” value was 50%, the “% HDM allergic individuals with cytokine production in ex-vivo T cell assay IL-9” value worked out at 25%, the “% HDM allergic individuals with cytokine production in ex-vivo T cell assay IL-10” value came to 38% and the “% HDM allergic individuals with cytokine production in ex-vivo T cell assay IL-13” value stood at 38%. In data set [2], the “% HDM allergic individuals with cytokine production in ex-vivo T cell assay IL-17” value was 6%, the “% HDM allergic individuals with cytokine production in ex-vivo T cell assay IL-31” value is listed as 0%, the “% HDM allergic individuals with cytokine production in ex-vivo T cell assay INF-g” value is listed as 0% and the “% non-allergic individuals with cytokine production in ex-vivo T cell assay IL-5” value was 0%. Moreover, in data set [2], the “% non-allergic individuals with cytokine production in ex-vivo T cell assay IL-9” value is on record as 0%, the “% non-allergic individuals with cytokine production in ex-vivo T cell assay IL-10” value is reported as 0%, the “% non-allergic individuals with cytokine production in ex-vivo T cell assay IL-13” value was determined as 0% and the “% non-allergic individuals with cytokine production in ex-vivo T cell assay IL-17” value was 0%. Also, in data set [2], the “% non-allergic individuals with cytokine production in ex-vivo T cell assay IL-31” value is 0% and the “% non-allergic individuals with cytokine production in ex-vivo T cell assay INF-g” value came to 0%. Also, in data set [3], the “% responders of in-vitro T cell proliferation test, Allergic” value was 18% and the “% responders … Non-allergics” value worked out at 13%.

B3: A011: house dust mite protein; SEQ ID NO: 39 (Der f), 40 (Der p), 309 (Blo t) (protein)
chain: KSAPEGCFRAAVLDHVHQTDARHLSNTAKIIDLNFKVYEDAAALAKKQGADIIVFPENGLIYSILSREKADEFASDIPDAEVNACTLDSKFVYNRLACLAQKHQMFVVADLIDRKSCEELGINNVSDSCPADKKFLFNTAVLFDRQGKLLGRYHKMHLFGEISMNPPPKPELLVIDTELGRLGMQICFDMIFKTPGYLLAQENKFDTMLFPTWWFDESPMLSSSQYQMAWAFGNNVTLLASNIHRIEVGSRGSGIYVGPHRTLAAALYDDSVERLVLANVPIKPKETDQSACPLDSEIIEVPQQIPIPKSVKYHHQNLNLKDVTLLQLSSNESEVHLCHKGVCCQFEYRLAMKDQPQESWVDRVPLLANMLHYLTPEERYYLLIANRTRPGAYPWSEEFCAVVVCPSSRWNFGKMQKDCSKIGSNQELSSRFVHAKLRGKFSEDTAVYPSAVGSKNQLIYPENKWKFWKVNVPNEPEYFIELGAKDNSESRAMELGALVLYGRNYNRDPRYEQKALPIN
As to B3, in data set [1] (1 ng/ml), the “# of individuals of 14 with positive BAT test” value stood at 0. Also, the “# of individuals of 14 with positive BAT test” value in data set [1] (10 ng/ml) is listed as 0. Further, the “# of individuals of 14 with positive BAT test” value in data set [1] (100 ng/ml) came to 0. For the same molecule, the “# of individuals of 14 with positive BAT test” value in data set [1] (1000 ng/ml) is 1. Also, in data set [2], the “% HDM allergic individuals with cytokine production in ex-vivo T cell assay IL-5” value is listed as 25%, the “% HDM allergic individuals with cytokine production in ex-vivo T cell assay IL-9” value was found to be 6%, the “% HDM allergic individuals with cytokine production in ex-vivo T cell assay IL-10” value came out at 13% and the “% HDM allergic individuals with cytokine production in ex-vivo T cell assay IL-13” value came to 19%. Besides, in data set [2], the “% HDM allergic individuals with cytokine production in ex-vivo T cell assay IL-17” value is 6%, the “% HDM allergic individuals with cytokine production in ex-vivo T cell assay IL-31” value is on record as 6%, the “% HDM allergic individuals with cytokine production in ex-vivo T cell assay INF-g” value came to 0% and the “% non-allergic individuals with cytokine production in ex-vivo T cell assay IL-5” value stood at 0%. In data set [2], the “% non-allergic individuals with cytokine production in ex-vivo T cell assay IL-9” value turned out to be 0%, the “% non-allergic individuals with cytokine production in ex-vivo T cell assay IL-10” value amounted to 0%, the “% non-allergic individuals with cytokine production in ex-vivo T cell assay IL-13” value turned out to be 0% and the “% non-allergic individuals with cytokine production in ex-vivo T cell assay IL-17” value is given as 0%. Also, in data set [2], the “% non-allergic individuals with cytokine production in ex-vivo T cell assay IL-31” value was 0% and the “% non-allergic individuals with cytokine production in ex-vivo T cell assay INF-g” value worked out at 17%. In data set [3], the “% responders of in-vitro T cell proliferation test, Allergic” value is 64% and the “% responders … Non-allergics” value was 13%.
